Laboratory results published in the supplement of paper PMC7125110.
± gives the standard error. For some of these results: This sample holds only a part of the variants without activity.

B1: glmS ribozyme (parent)
chain: AUAAAAGCGCCAGAACUACAGAAAUGUAGUUGACGAGGAGGAGGUUUAUCGAAUUUUCGGCGGAUGCCUCCAAA

Tests used:
Conditions in all cases: with glucosamine-6-phosphate
glucosamine-6-phosphate [1] = variants of: B1; test: kcat; higher = faster cleavage; RNA array
Method in brief: (§1)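 Barcoded ribozyme variants, transcribed in situ by E. coli RNA polymerase on sequenced MiSeq chips, were followed via a hybridised Cy3 probe at 37 °C. Glucosamine-6-phosphate ranged from 40 μM to 10 mM in HEPES/KCl/Mg(OAc)2 buffer. kobs came from decay fits to per-tile medians, and kcat and KM from weighted Michaelis–Menten fits.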

glucosamine-6-phosphate [2] = variants of: B1; test: KM; higher = weaker cofactor use; RNA array
Method in brief: as §1

glucosamine-6-phosphate [3] = variants of: B1; test: self-cleavage kobs at 2500 uM GlcN6P; higher = faster cleavage; RNA array
Method in brief: as §1

glucosamine-6-phosphate [4] = variants of: B1; test: self-cleavage kobs at 10000 uM GlcN6P; higher = faster cleavage; RNA array
Method in brief: as §1

glucosamine-6-phosphate [5] = variants of: B1; test: self-cleavage kobs at 640 uM GlcN6P; higher = faster cleavage; RNA array
Method in brief: as §1

glucosamine-6-phosphate [6] = variants of: B1; test: self-cleavage kobs at 40 uM GlcN6P; higher = faster cleavage; RNA array
Method in brief: as §1

glucosamine-6-phosphate [7] = variants of: B1; test: self-cleavage kobs at 160 uM GlcN6P; higher = faster cleavage; RNA array
Method in brief: as §1

Variant	kcat (glucosamine-6-phosphate [1])	KM (glucosamine-6-phosphate [2])	self-cleavage kobs at 2500 uM GlcN6P (glucosamine-6-phosphate [3])	self-cleavage kobs at 10000 uM GlcN6P (glucosamine-6-phosphate [4])	self-cleavage kobs at 640 uM GlcN6P (glucosamine-6-phosphate [5])	self-cleavage kobs at 40 uM GlcN6P (glucosamine-6-phosphate [6])	self-cleavage kobs at 160 uM GlcN6P (glucosamine-6-phosphate [7])
A14G C61U	3.27e-05 ± 1.8e-06 s⁻¹	592 ± 240 µM	2.91e-05 ± 9.3e-06 s⁻¹	3.02e-05 ± 6.3e-06 s⁻¹			
G13C U55G	0.000125 ± 2.7e-05 s⁻¹		6.8e-05 ± 9.4e-06 s⁻¹	9.6e-05 ± 1.2e-05 s⁻¹			
G13U G40U	7.77e-05 ± 1.2e-05 s⁻¹		8.94e-05 ± 1.4e-05 s⁻¹	6.79e-05 ± 8.5e-06 s⁻¹	3.55e-05 ± 9.5e-06 s⁻¹		
U54G U65A	0.00375 ± 0.00091 s⁻¹	2250 ± 730 µM	0.00199 ± 0.00034 s⁻¹	0.00315 ± 0.00065 s⁻¹	0.0008 ± 0.00014 s⁻¹	9.07e-05 ± 1.5e-05 s⁻¹	0.000213 ± 3.8e-05 s⁻¹
U30G U65C	0.000117 ± 2.1e-05 s⁻¹		0.000122 ± 2.6e-05 s⁻¹	9.72e-05 ± 2.2e-05 s⁻¹	4.91e-05 ± 1.7e-05 s⁻¹		
A12C C61U	1.24e-05 ± 3.6e-06 s⁻¹					< 1e-05 s⁻¹	
C8U C34U G35U C70A	< 1e-05 s⁻¹					< 1e-05 s⁻¹	
C11U U30G	0.00224 ± 0.00076 s⁻¹		0.00185 ± 0.00033 s⁻¹	0.00194 ± 0.00021 s⁻¹	0.000444 ± 7.4e-05 s⁻¹	0.0001 ± 1.4e-05 s⁻¹	0.00018 ± 2.9e-05 s⁻¹
A14U C70A	0.000118 ± 4.4e-06 s⁻¹	568 ± 71 µM	9.59e-05 ± 1e-05 s⁻¹	0.000112 ± 1.1e-05 s⁻¹	6.15e-05 ± 8e-06 s⁻¹		2.57e-05 ± 8.7e-06 s⁻¹
U54C U57C	0.000143 ± 2e-05 s⁻¹	3450 ± 1100 µM	6.28e-05 ± 1.1e-05 s⁻¹	0.000105 ± 1.6e-05 s⁻¹			
U55A A64C	0.000188 ± 3.5e-05 s⁻¹		0.000144 ± 2.3e-05 s⁻¹	0.000149 ± 1.3e-05 s⁻¹	2.82e-05 ± 1.2e-05 s⁻¹		
U49A C71A	< 1e-05 s⁻¹						
A12U G43U	0.000148 ± 3e-05 s⁻¹		0.000134 ± 2.2e-05 s⁻¹	0.00012 ± 1.2e-05 s⁻¹	2.86e-05 ± 1.1e-05 s⁻¹		
G40A A42U	7.24e-05 ± 1.6e-05 s⁻¹		7.53e-05 ± 1.2e-05 s⁻¹	5.75e-05 ± 1.2e-05 s⁻¹			
U49G U69C	0.000152 ± 6.9e-06 s⁻¹	466 ± 86 µM	0.000131 ± 2.7e-05 s⁻¹	0.00014 ± 3.8e-05 s⁻¹	8.8e-05 ± 2.4e-05 s⁻¹		
A48G C71G	1.72e-05 ± 7.5e-06 s⁻¹						
U31G A42U	5.2e-05 ± 1.3e-05 s⁻¹		2.29e-05 ± 1.1e-05 s⁻¹	4.27e-05 ± 1.1e-05 s⁻¹			
G32A U46A	0.000607 ± 2.1e-05 s⁻¹		7.83e-05 ± 2.1e-05 s⁻¹	0.000226 ± 2.7e-05 s⁻¹	2.22e-05 ± 1.1e-05 s⁻¹		
C11A U55A	0.000149 ± 2.2e-05 s⁻¹		0.000203 ± 4.1e-05 s⁻¹	0.000135 ± 1.4e-05 s⁻¹	0.000125 ± 4e-05 s⁻¹		
G32A U46C	0.000236 ± 2.1e-05 s⁻¹	1770 ± 290 µM	0.000126 ± 2.3e-05 s⁻¹	0.000209 ± 3.3e-05 s⁻¹	6.49e-05 ± 8.9e-06 s⁻¹		

Variant	kcat (glucosamine-6-phosphate [1])	KM (glucosamine-6-phosphate [2])	self-cleavage kobs at 2500 uM GlcN6P (glucosamine-6-phosphate [3])	self-cleavage kobs at 10000 uM GlcN6P (glucosamine-6-phosphate [4])	self-cleavage kobs at 640 uM GlcN6P (glucosamine-6-phosphate [5])	self-cleavage kobs at 40 uM GlcN6P (glucosamine-6-phosphate [6])	self-cleavage kobs at 160 uM GlcN6P (glucosamine-6-phosphate [7])
A36U U47G G51U	< 1e-05 s⁻¹			< 1e-05 s⁻¹			
G51A C71G	2.05e-05 ± 3.5e-06 s⁻¹						
A39C C71U	0.00106 ± 0.00018 s⁻¹	1570 ± 470 µM	0.000738 ± 8.5e-05 s⁻¹	0.000904 ± 7.4e-05 s⁻¹	0.000275 ± 3.1e-05 s⁻¹	4.78e-05 ± 7.5e-06 s⁻¹	9.02e-05 ± 1.2e-05 s⁻¹
G29U G32C G43U A53U	1.74e-05 ± 3.6e-06 s⁻¹	9610 ± 3900 µM				< 1e-05 s⁻¹	
C10A G13A	< 1e-05 s⁻¹					< 1e-05 s⁻¹	< 1e-05 s⁻¹
A15U G41U	0.000143 ± 2.5e-05 s⁻¹		0.000115 ± 1.5e-05 s⁻¹	0.000149 ± 1.7e-05 s⁻¹	0.000255 ± 5.3e-05 s⁻¹		4.82e-05 ± 1.4e-05 s⁻¹
C10A G32U A53U C67U	1.23e-05 ± 4.1e-06 s⁻¹						
A6C A15G	0.00015 ± 3.4e-06 s⁻¹	2500 ± 150 µM	7.37e-05 ± 1.3e-05 s⁻¹	0.000121 ± 1.6e-05 s⁻¹	3.25e-05 ± 1.4e-05 s⁻¹		
A52C C68U	1.28e-05 ± 5.9e-07 s⁻¹	249 ± 86 µM				< 1e-05 s⁻¹	
C50U U69C	2.88e-05 ± 9.3e-06 s⁻¹		4.75e-05 ± 1.5e-05 s⁻¹				4.48e-05 ± 1.5e-05 s⁻¹
C16U C34A C50G U56C	1.31e-05 ± 1.9e-06 s⁻¹						
A53G	0.0676 ± 0.0095 s⁻¹	2010 ± 330 µM	0.0341 ± 0.0017 s⁻¹	0.0639 ± 0.0029 s⁻¹	0.015 ± 0.00053 s⁻¹	0.00137 ± 2.6e-05 s⁻¹	0.00441 ± 0.0003 s⁻¹
U49G C50U A64U C67G C70A	3.56e-05 ± 1.6e-05 s⁻¹				4.15e-05 ± 2e-05 s⁻¹		
U56C C58G	2.76e-05 ± 8.3e-06 s⁻¹						
C10G C70A	< 1e-05 s⁻¹			< 1e-05 s⁻¹			
U45G C71G	0.000564 ± 5.3e-05 s⁻¹	2510 ± 370 µM	0.000322 ± 5.2e-05 s⁻¹	0.000432 ± 6.3e-05 s⁻¹	0.000112 ± 1.2e-05 s⁻¹		3.29e-05 ± 1.3e-05 s⁻¹
A14G A15C	0.0193 ± 0.0062 s⁻¹	584 ± 270 µM	0.012 ± 0.0039 s⁻¹	0.0199 ± 0.0053 s⁻¹	0.0155 ± 0.0029 s⁻¹	0.00141 ± 0.00023 s⁻¹	0.00312 ± 0.00073 s⁻¹
A15U A42U	4.62e-05 ± 4.1e-06 s⁻¹	1830 ± 680 µM		3.96e-05 ± 1e-05 s⁻¹			
G40C A53U	0.00427 ± 0.00097 s⁻¹	2570 ± 870 µM	0.00226 ± 0.00037 s⁻¹	0.0035 ± 0.00035 s⁻¹	0.000607 ± 0.00011 s⁻¹	8.31e-05 ± 9.2e-06 s⁻¹	0.000241 ± 5.8e-05 s⁻¹
